# Data from patent US5981483A, “Compositions comprising modulators of cytokines of the TGF-β superfamily” (Mount Sinai Hospital Corporation, priority 1997, dated 1999).
# T1: BMP-2 (Homo sapiens, UniProt P12643)
# T1 construct: Genetics Institute, Cambridge, Mass; (gift)
# T1 sequence (P12643 283-396): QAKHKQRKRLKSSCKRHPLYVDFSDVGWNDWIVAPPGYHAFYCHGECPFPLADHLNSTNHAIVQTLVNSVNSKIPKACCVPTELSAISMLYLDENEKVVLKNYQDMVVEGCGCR
# B1: h-Fetuin: adult human fetuin/α2-HS glycoprotein (Calbiochem) (protein)
# chain: APHGPGLIYRQPNCDDPETEEAALVAIDYINQNLPWGYKHTLNQIDEVKVWPQQPSGELFEIEIDTLETTCHVLDPTPVARCSVRQLKEHAVEGDCDFQLLKLDGKFSVVYAKCDSSPDSAEDVRKVCQDCPLLAPLNDTRVVHAAKAALAAFNAQNNGSNFQLEEISRAQLVPLPPSTYVEFTVSGTDCVAKEATEAAKCNLLAEKQYGFCKATLSEKLGGAEVAVTCMVFQTQPVSSQPQPEGANEAVPTPVVDPDAPPSPPLGAPGLPPAGSPPDSHVLLAAPPGHQLHRAHYDLRHTFMGVVSLGSPSGEVSHPRKTRTVVQPSVGAAAGPVVPPCPGRIRHFKV
# Molecular target: T1, BMP-2
# Assay: BIAcore surface plasmon resonance, binding to immobilized BMP-2
# Conditions: Table 2 (calculations repeated); ligand BMP-2
# Method: In this system, a purified protein serving as the ligand is covalently coupled to a carboxymethylated dextran surface, and binding molecules (i.e. the analyte) are passed in a fluid phase across the surface. Binding of the analyte to ligand causes a change in reflected light which is directly proportional to mass bound, and is measured in arbitrary response units (R.U.). Analyte-ligand binding is observed as both increasing response with time during the injection of analyte, and the difference in the position of the baseline before and after injection.
# Schuster, R. V. Swanson, L. A. Alex, R. B. Bourret, M. I. Simon, Nature 365, 343 (1993). 1000 R.U. equals approximately 1 ng/mm^2. The running buffer was 20 mM Hepes (pH 7.2), 150 mM NaCl and the flow rate for all sensorgrams was 3 μl/min.
# Regeneration of the surface to remove bound analyte was done by injection of 10 μl of 20 mM NaOH. To cyclize TRH1 peptides, the material was reduced with 5 mM DTT then brought to a final concentration of 60 μM in 25 mM ammonium acetate (pH 8.5). […]
# Data was analyzed using the BIA-evaluation software (Pharmacia Biosensor). The association rate constant, kass, was calculated by first plotting the change in response with time versus response (i.e. dR/dT vs R). […] The affinity constants were calculated from KD =kdiss /kass. […]
molecule,measurement,value
B1,kass,22000 ± 5000 M⁻¹ s⁻¹
